Experimental data from PMC3060506 (The Journal of Biological Chemistry, 2010).
Ends that are not written are not given here.

Target: T1, RNASEH2BC heterodimer, purified (human, UniProt Q5TBB1 1-312; Q8TDP1 1-164)
T1 sequence (looked up) 1: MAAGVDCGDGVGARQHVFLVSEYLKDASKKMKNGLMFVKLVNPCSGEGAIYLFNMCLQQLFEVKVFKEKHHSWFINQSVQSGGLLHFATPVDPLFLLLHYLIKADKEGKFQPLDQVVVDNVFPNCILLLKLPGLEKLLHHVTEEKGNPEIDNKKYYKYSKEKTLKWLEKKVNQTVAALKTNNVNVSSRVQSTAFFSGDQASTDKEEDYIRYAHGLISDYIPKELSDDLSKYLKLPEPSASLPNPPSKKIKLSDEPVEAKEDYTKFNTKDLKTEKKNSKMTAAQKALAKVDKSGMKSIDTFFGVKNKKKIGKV
T1 sequence (looked up) 2: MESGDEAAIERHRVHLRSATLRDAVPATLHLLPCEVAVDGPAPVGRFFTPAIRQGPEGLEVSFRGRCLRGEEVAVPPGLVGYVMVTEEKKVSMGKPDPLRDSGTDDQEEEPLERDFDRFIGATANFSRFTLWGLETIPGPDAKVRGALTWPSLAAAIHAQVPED
Assay: fluorescence polarisation

Kd: 123 ± 10 nM
Binder: fluorescein-GSSHRYFLERGLESATSL [fluorescein-labeled peptide RNASEH2A:283–299]
